Test [1] addresses T1, human ASCT2 (system ASC amino acid transporter 2), endogenous on human tumour cell lines (human, UniProt Q15758 1-541).
T1 construct: Endogenous ASCT2 of cell lines KMS-11 (stated to express ASCT2 mRNA), WiDr and OPM-2; also called SLC1A5; ASCT2 on KMS-11, OPM-2, WiDr cells
T1 sequence: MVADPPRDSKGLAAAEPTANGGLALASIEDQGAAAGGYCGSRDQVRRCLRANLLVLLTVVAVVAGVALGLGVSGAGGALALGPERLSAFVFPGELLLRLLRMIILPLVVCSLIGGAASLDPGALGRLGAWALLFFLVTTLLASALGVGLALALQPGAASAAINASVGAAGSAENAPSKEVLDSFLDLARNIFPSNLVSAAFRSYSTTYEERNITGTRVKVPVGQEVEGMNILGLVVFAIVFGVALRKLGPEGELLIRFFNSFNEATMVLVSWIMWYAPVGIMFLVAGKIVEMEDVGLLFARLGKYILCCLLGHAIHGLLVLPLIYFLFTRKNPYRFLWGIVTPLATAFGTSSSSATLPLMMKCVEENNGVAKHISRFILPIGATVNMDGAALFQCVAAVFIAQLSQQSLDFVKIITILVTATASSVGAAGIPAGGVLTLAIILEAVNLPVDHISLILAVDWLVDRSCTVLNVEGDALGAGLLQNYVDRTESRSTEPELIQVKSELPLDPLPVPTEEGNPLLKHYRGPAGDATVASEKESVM
In words: flow cytometry on KMS-11 cells. (Flow cytometry measures light scatter and fluorescence of single cells or particles in a stream.)

In test [2] the target is T2, mouse EL4 type ASCT2-myc/His (mouse/human chimeric ASCT2), expressed on CHO cells (human/mouse chimera, UniProt Q15758 1-541).
T2 construct: also called mEL4/CHO; mEL4
T2 sequence: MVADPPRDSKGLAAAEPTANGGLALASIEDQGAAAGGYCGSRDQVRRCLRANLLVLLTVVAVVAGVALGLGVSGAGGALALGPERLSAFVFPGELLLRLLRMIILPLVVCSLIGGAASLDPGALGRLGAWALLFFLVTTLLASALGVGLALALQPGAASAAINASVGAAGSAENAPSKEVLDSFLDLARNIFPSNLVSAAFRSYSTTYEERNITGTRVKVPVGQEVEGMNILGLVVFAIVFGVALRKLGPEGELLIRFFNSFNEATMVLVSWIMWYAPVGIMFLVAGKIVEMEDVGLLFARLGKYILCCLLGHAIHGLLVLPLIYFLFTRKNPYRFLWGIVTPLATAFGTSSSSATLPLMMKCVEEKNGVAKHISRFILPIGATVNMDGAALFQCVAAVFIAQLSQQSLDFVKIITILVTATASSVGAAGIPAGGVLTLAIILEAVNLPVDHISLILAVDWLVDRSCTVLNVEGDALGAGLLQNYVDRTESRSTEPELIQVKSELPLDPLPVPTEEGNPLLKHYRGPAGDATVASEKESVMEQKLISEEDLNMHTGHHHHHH
In words: flow cytometry on mEL4/CHO cells; '+' = presence of reactivity. How it is done:
(§1) Using the mouse ASCT2/CHO and mouse/human chimeric ASCT2/CHO cells constructed in Examples 10 and 11 and FITC-labeled anti-mouse immunoglobulin G (H+L) (manufactured by Dako) or ALEXA488-labeled anti-rat immunoglobulin G […] (manufactured by Invitrogen) as the secondary antibody, the reactivity of anti-ASCT2 monoclonal antibodies KM4008, KM4012 and KM4018 was measured in the same manner as in Example 9(1).
(§2) In Table 2, the symbols “+”, “−”, and “±” represent the presence of reactivity, the absence of reactivity, and the decrease in reactivity, respectively.

The target of test [3] is T3, human ASCT2-myc/His (fusion protein in which myc/His was added to the C-terminal of human ASCT2), expressed … (human, UniProt Q15758 1-541).
T3 construct: Amino acid transporter with C-terminal myc/His tag, stably expressed in CHO/DG44 cells; cell lysates of these cells were used for Western blotting and immunoprecipitation; also called ASCT2/CHO; human ASCT2-myc/His gene-introduced CHO cell
T3 sequence: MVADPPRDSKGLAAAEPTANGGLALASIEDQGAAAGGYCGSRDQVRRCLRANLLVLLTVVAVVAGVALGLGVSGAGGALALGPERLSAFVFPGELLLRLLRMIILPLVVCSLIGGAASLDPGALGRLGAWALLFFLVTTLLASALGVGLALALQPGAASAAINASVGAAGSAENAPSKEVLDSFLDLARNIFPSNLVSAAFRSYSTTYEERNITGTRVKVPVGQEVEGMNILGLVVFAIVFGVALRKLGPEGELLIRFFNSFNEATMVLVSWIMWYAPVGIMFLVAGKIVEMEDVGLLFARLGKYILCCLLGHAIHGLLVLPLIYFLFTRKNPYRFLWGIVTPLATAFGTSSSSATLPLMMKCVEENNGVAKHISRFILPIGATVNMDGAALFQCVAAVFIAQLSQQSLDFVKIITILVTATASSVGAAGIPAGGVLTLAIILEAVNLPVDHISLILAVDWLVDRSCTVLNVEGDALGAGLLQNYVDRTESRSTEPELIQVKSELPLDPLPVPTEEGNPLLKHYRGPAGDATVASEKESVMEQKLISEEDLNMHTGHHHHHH
Description: flow cytometry on human ASCT2/CHO cells; '+' = presence of reactivity.

Test [4] addresses T4, mouse EL2 type ASCT2-myc/His (mouse/human chimeric ASCT2), expressed on CHO cells (human/mouse chimera).
T4 construct: also called mEL2/CHO; mEL2
T4 chain: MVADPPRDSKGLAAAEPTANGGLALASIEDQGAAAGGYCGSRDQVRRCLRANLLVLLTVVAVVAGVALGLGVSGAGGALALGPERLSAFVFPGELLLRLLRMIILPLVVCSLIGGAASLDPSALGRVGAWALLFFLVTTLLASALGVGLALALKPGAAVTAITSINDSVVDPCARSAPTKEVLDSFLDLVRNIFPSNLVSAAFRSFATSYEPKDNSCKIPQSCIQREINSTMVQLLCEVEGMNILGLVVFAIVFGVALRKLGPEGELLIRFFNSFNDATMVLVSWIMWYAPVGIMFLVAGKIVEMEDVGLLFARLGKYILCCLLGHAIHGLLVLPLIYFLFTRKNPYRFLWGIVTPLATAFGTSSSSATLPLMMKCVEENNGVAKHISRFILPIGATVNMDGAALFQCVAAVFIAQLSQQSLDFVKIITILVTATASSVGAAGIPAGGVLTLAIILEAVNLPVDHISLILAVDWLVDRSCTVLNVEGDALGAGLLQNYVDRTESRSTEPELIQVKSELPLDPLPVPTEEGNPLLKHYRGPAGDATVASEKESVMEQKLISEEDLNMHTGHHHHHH
In words: flow cytometry on mEL2/CHO cells; '-' represents the absence of reactivity. The protocol: as §1, §2

Test [5] deals with T5, mouse ASCT2-myc/His, expressed on CHO cells (mouse, UniProt P51912 1-553).
T5 construct: also called mouse ASCT2/CHO
T5 sequence: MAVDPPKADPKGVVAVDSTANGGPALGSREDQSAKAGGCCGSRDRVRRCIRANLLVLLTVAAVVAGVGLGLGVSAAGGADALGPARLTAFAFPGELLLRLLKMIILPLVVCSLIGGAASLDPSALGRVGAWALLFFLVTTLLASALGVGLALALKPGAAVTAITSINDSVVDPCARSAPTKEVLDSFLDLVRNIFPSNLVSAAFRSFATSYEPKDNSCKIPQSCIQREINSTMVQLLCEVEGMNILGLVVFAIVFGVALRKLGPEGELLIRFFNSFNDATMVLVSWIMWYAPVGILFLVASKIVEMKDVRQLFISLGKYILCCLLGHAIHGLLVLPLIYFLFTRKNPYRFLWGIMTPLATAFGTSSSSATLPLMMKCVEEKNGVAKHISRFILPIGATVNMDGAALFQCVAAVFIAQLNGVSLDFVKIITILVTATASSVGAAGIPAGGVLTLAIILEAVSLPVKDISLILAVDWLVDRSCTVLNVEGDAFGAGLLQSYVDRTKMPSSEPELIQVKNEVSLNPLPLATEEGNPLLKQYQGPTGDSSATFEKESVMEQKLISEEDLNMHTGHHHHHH
Description: flow cytometry on mouse ASCT2/CHO cells; '-' represents the absence of reactivity. The protocol: as §1, §2

B1: anti-ASCT2 monoclonal antibody KM4018 (antibody, rat IgG2a, V domains shown)
VH: EVQLVESGGGLVQSGRSIRLSCAASGFSFSNYYMAWVRQAPSKGLEWVASITKGGGNTYYRDSVKGRFTFSRDNAKSTLYLQMDSLRSEDTATYYCARQVTIAAVSTSYFDSWGQGVMVTVSS
VL: DIVLTQSPALAVSLGQRATISCKTNQKVDYYGNSYVYWYQQKPGQQPKLLIYLASNLASGIPARFSGRGSGTDFTLTIDPVEADDTATYYCQQSRNLPYTFGAGTKLELKR
notes: rat IgG2a, kappa
Regarding B1, the binding result in test [1] is recorded as “binds”; in test [2], “binds”; in test [3], “binds”; in test [4], “no binding”; in test [5], “no binding”.

(Values after patent US20120039904A1 (Kyowa Kirin, published 2012).)
